Experimental data taken from the DeepSol protein solubility set.

Assay: soluble on expression in E. coli; label from the status in PepcDB or PDB records

Sequence | soluble on expression in E. coli
MSESSEWLIYRGAGEPHDGVDRLPDPPPWRDFTSRDAAGSGDGSEDRRLGAHRHLAELHRPGAEELEMINAALYLRRPLLVTGSPGAGKSTLAHSVAYELGLGNVLRWSIVSRSELQDGLYHYDAIARLQDVQIAAQADNGPGSGTPGAVDGIGGYIRLGPLGTALLPSDKPRVLLIDELDKSDIDLPNDLLNVLEEGEFAIPELERVADRLPDRTAEVLTADGVKVPVRDGRVRCRAFPFVVLTSNGERDFPAPLMRRCIHLELGRPDHNRLATFVRAHLGDEAARAGDDLVTRFLERSRSELLATDQLLNAIYLTDAAATPSRDRLADLLIQRLDRPRLEHHHHHH | soluble
MSEVNIVVNGREAGSKSKGCALCGATWGDYHADFLGEDLFFCCDICAAEFMNMMDEAFKHTARHNVDELHIDGNYQLGRNVLLKNGEDRLRFYVKFGPGAVIKEFKITD | soluble
MSEWASEDINAPSLLTGNPALQPQTGGILNIPANHQRIFTLFFTCRSQTNGDVVDQYAVEDRQQRLESRLLALKPSAQRNKQMCGECLGGVILTALFDPRSQAM | not soluble
MSFAPMLLATINNSIGNKDKHVSLEYLIGLFMDKKTTNLSNTDKYIIGTIQTEALEQEIEWFSQDYHIPMENILHVLSINPYQ | not soluble
MSFFEQYRTGNLVLPNALFFHFKDIFPSADDFLVWQFLYLQTTTQIGEVASSQIAQATGKTPTEVNKSITTLTEAGLLDFTTVKVNNEIKMVVDASPALAVLDKLVSSENSTTGPVAGQPTNTQLIKQLTDELEQALGILNPMVIEDLNKEIQEEHTDPELIREALKEAVFNRKTNWNYIKGVLRNWKLSGITTKIQVEERRLEHQGKKQHHQVSDEFKTGMDAARQLWGGQ | not soluble
MSFGLVGTVNNNGWKSPFRHETKYRAGYDKFKYYKTHYRGAKKAGTNDDRWRWTAWFDLDFAHQKIVLIERGELHRQADLKKSDPATNETSKTVWGSIKEKLLQNVNNLHSEKGVFLWFRQSGFTTTRN | soluble
MSFKDLRSFIDHLEANGELKRISYPVDPHLEMTEIADRVLRAQGPALLFENPTNHSMPVLANLFGTPKRVAMALGKDDPLALREVGELLAFLKEPEPPRGFKDAISKIPMFKQALNMPPKTVRNPACQQVVKTGDDVDLTQLPIQHCWPGDVAPLVTWGLTITKGPRKSRQNLGIYRQQLLGKNKLIMRWLSHRGGALDFADFKEQFPGERYPVVVALGSDPVTILGAVTPVPDAMSEYAFAGLLRGERTEVCKALSCDLEVPASSEIILEGYIDPNEMAEEGPYGDHTGYYNETDKFPVFTVTHITHRKDPIYHSTYTGRPPDEPAMLGVALNEVFVPILRKQYPEIIDFYLPPEGCSYRMAVISIRKQYPGHAKRVMMGAWSFLRQFMYTKFIVVVDDDVNCRDWNDVIWAITTRMDPKRDTVMIDNTPIDYLDFASPVVGLGSKMGLDATNKWEGETNREWGTPIVMDPKVKQKIDSIWDELGIS | soluble
MSFSENRRIALVTLVVDNYDRAKAFYCDVLGFECLSDKPLDDGKRWVVVKPQGAEGGALLLAEADGEQQRLAIGNQTGGRVGFFLHTDDFARDYETMIARGVHFLEEPRHEVYGSVAVFADPYGNRWDLLQPRG | not soluble
MSFSQAVSGLNAAATNLDVIGNNIANSATYGFKSGTASFADMFAGSKVGLGVKVAGITQDFTDGTTTNTGRGLDVAISQNGFFRLVDSNGSVFYSRNGQFKLDENRNLVNMQGMQLTGYPATGTPPTIQQGANPAPITIPNTLMAAKSTTTASMQINLNSTDPVPSKTPFSVSDADSYNKKGTVTVYDSQGNAHDMNVYFVKTKDNEWAVYTHDSSDPAATAPTTASTTLKFNENGILESGGTVNITTGTINGATAATFSLSFLNSMQQNTGANNIVATNQNGYKPGDLVSYQINNDGTVVGNYSNEQEQVLGQIVLANFANNEGLASQGDNVWAATQASGVALLGTAGSGNFGKLTNGALEASNVDLSKELVNMIVAQRNYQSNAQTIKTQDQILNTLVNLR | not soluble
MSGFSVYVGNAPFQTTEDDLGNYFSQAGNVSNVRIVCDRETGRPRGFAFVEFTEEAAAQRAVDQFNGVDFNGRALRVNLAQNRNN | not soluble
MSGGLLKALRSDSYVELSQYRDQHFRGDNEEQEKLLKKSCTLYVGNLSFYTTEEQIYELFSKSGDIKKIIMGLDKMKKTACGFCFVEYYSRADAENAMRYINGTRLDDRIIRTDWDAGFKEGRQYGRGRSGGQVRDEYRQDYDAGRGGYGKLAQNQ | soluble
MSGIITILGLGAGELDQLTMGVYRKIKEADHLFVRTKEHPVIEELEKEGVQYTSFDAVYEAHDTFEIVYETIANKLLEQAEGTEIIYAVPGHPLVAERTVQLLLEKGEVSNVEVRIEGGQSFLDPMFASLKIDPIEGFQLLDATSFERGQLELRQHLIFCQVYDAFVASDVKLTLMEMLPDDYEVYIVTAAGTSFEQVKKVPLYMLDHETELNNLTSVYMPPVQERASLYQQFDVLREIIAELRGPNGCPWDKKQTHQSLKKYLIEEAYEVLEAIDEEDDDHLVEELGDILLQVMLHAQIGEDEGWFSIDDIIRTLSEKMVRRHPHVFGNTDVNSADEVIANWEEIKKQEKGFVKESVLNGVPKSLPQLLRAYEIQKKAGKVGFDWVDVQPMIEKALEEWQEFQQEVTNMDEEKMLGEFGDLLFAFVNIARHYKIDPEEALRSTNEKFTGRFLYMEAKVAEMNKEMKDLSLEQLDVLWEEAKQTER | not soluble
MSGQKCSAYTDTMGTCTICSIFAPHSQLFICRHEGCKYALKQSSSIMTPAMFYRKEKVICGKCAFVGPHKMHKDFVSKAQKLAFKIASQEIGVRLQMEFDVLSELHEDNPVDYAIILSGHEKLEKIDVIKYLSQSKTIVEWNLRQRQLNEAIQFIKFNRIEGYHRVKELANKMLDAFYDANATIERDSENGSPQSDDDHLSDVSHECQGSSRSSISSKKSSIHSTSTTGTVILNQNPDNALSCSEVSGGDELKNKSSTNEGYTESMTETVITISRRFEMCIRRESPEDAVSRIADYLDDRIESNDQKKAIAEYMERNYSIKWPRQFQ | not soluble
MSHHHHHHAGIFTFEEPVTHVSESIGIMEVKVLRTSGARGNVIVPYKTIEGTARGGGEDFEDTCGELEFQNDEIVKTISVKVIDDEEYEKNKTFFLEIGEPRLVEMSEKKGGFTITEEYDDKQPLTSKEEEERRIAEMGRPILGEHTKLEVIIEESYEFKSTVD | soluble
MSIKSDSRHLYLQVIDRIKRDIETGVYKEKQKLPSEFELAKQLGVSRATLREALRVLEEENIIIRRHGVGTFVNARPLFTSGIEQLSSVTDMIRQAGRKPGTIFLSSSIQQPTEDDMRRFQCRPDENLLLIERVRTADGEPVVYCLDKILCKYLPKGISYEHESLFENLHNQTHRDIAYAVARIVPLGYHEKVSPILQCDPETALLVLKQMHFDKNDEPIFYSVNYFRSDKFSFHVMRKRFSF | not soluble
MSILPSNTPLYSHPLPQIEQWLKDQGCQQDENELHCWRLQKPSWQAEIWLDIEQITVRYIQAGENGQNIQRSFKYSLSRQDIEQAIFCGP | not soluble
MSINTANTPDGLGVLLYNGETIVIFAQGVVMTLGTSENENLEGRRTGTIYLTSHRIIFMPDPGDWLKSFEIPFNSMQDVNLNQPIFGANYLCGIASAVQGGQMRGEVKWRMTFNRGGCIEFGQSLLQAVERAVRMRPENAPPAYSPPIGDFYSAPPAYYQPSPDQGPNGFNPTTDSFPDQPNPSRVFMSSAPPPYPGIGPERGPHPTEELHVAGQFEAPPAYGSGETADGLRRRN | not soluble
MSIPFTRWPEEFARRYREKGYWQDLPLTDILTRHAASDSIAVIDGERQLSYRELNQAADNLACSLRRQGIKPGETALVQLGNVAELYITFFALLKLGVAPVLALFSHQRSELNAYASQIEPALLIADRQHALFSGDDFLNTFVTEHSSIRVVQLLNDSGEHNLQDAINHPAEDFTATPSPADEVAYFQLSGGTTGTPKLIPRTHNDYYYSVRRSVEICQFTQQTRYLCAIPAAHNYAMSSPGSLGVFLAGGTVVLAADPSATLCFPLIEKHQVNVTALVPPAVSLWLQALIEGESRAQLASLKLLQVGGARLSATLAARIPAEIGCQLQQVFGMAEGLVNYTRLDDSAEKIIHTQGYPMCPDDEVWVADAEGNPLPQGEVGRLMTRGPYTFRGYYKSPQHNASAFDANGFYCSGDLISIDPEGYITVQGREKDQINRGGEKIAAEEIENLLLRHPAVIYAALVSMEDELMGEKSCAYLVVKEPLRAVQVRRFLREQGIAEFKLPDRVECVDSLPLTAVGKVDKKQLRQWLASRASA | soluble
MSISASEARQRLFPLIEQVNTDHQPVRITSRAGDAVLMSADDYDAWQETVYLLRSPENARRLMEAVARDKAGHSAFTKSVDELREMAGGEE | soluble
MSITEQVDVAIVGSGPAGLAAAIELRRQGVARVCVLERDGEAGGIPRHCAHPPFGLREHGRLLTGPAYAQRNVEQAERAGVDIRLRHSVVALAAAGLLQLATPEGPRSLRATRVLLATGARETPRSARLLGGDRPLGVINTGALQAYLYLQGLKPFERPLIVGTELVSLSAVMSCRRAGIRPVAMLERNARATARWPLSLFPRLCGVPMHFSSELLEIEGRGRVEAARVRLGDGRVERIACDGILLSGRFVPESSLVRLSHLELDPASGGPRIDQFGRCSDPAYFAAGNLLRPIETAGWSFREGRRIAGLLAADLRAELPSAAPGIAIDCSGPLKLCVPQRLLADPTPGLAHLQLRVSEAASGRLRILADGRPVWERALSCLPERRLLVPLAALRLPPDTRRLEVAFLTSGHLEHHHHHH | not soluble
MSKFAERLQTVANKPEVFQKFSRGLERESLRYTPEGALTQTPHPKALGAALTHRWITTDFAESLLEFITPVSHEVDTLLAQMSDIHHFAQTKLGDEKLWPLSMPCYVGSEEGIVLAQYGSSNTGKMKTLYREGLKRRYGSLMQIISGVHFNFSFPESFWDALFGEQEESARQASKSAAYFGVIRNYYRFGWLIPYLFGASPALCSSFLQGRKTDLPFESIGKTLYLPYATSLRLSDLGYTNSAQSVLQIGFNSIEQYLQGLNEAIRTPSAEFAKLGVKVEGEYRQLNSNVLQIENELYAPIRPKRVTQSGERPSQALARAGVEYIEVRSLDVNPFSPIGINEDQVRFLDLFLAWTALSDSDPMDGCELACWRDNWRKVVLEGRKPGLELQIGCHGEVLTLQAWAKRVFADLRVIAETMDAALGGDAYQAVCAKLETWIENPELTLSAQILAEIKQHGGLGKTGCALGNEYRAVNLQHQYQFYSQDEMEQEVRRSTQAQADIEAKETLNFDAYLTQYFAYLQAVS | not soluble
MSKHRIALAGNPNTGKSTLFNTLTGLKQHTGNWTGKTVLKAEGEYEHNGSNYTLIDLPGTYSLYSNSADEEVARDYIIFEKPEVTVVVIDATAMERNLNLALQVMEMTNNVVICINLIDEAEKKGIVIDEKKLAKSLGVPVVKISARNRVGIGHLLNVIAKVANKKLIPTPIKITYSEKIENMIQELEPQIYKVFGDTYPARWIALRILDGDKNFLTTLQKHHNEPLVREVVINGISLSQ | not soluble
MSKIYVLDTNVLLQDPNAIFSFEENEVVIPAVVLEEVDSKKRYMDEVGRNARHVSKLIDALRQKGRLHEHVPLDTGGTLRIELNHRSFHQLQEIFIEKTNDNRILAVAKNLSLEEETKENGRPVILVSKDVLVRVKADAIGLLAEDFLNDRVVDNDEMY | not soluble
